# Reference: the domain aggregation screens of Martell et al. (2025)
# Test: soluble fraction after stress (log2 fold change); higher = more stays soluble; pooled small domains, quantitative proteomics
# Conditions: stress: 50 degC
# How it was run: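 Quantitative proteomics served as the high-throughput read-out for pooled custom libraries of small protein domains. Each was stressed at 50°C. Aggregation propensity is expressed as the base-two log fold change in soluble protein after stress. A higher value means a larger share of the protein remains in solution.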
row,Sequence,soluble fraction (log2)
1,HMSDLVATKEQVVEAYKYGLGLGLDNSTLKMLLFDIRGEDVADQDKISDGMTVSEIEIWKEGMRTIAEEYL,-0.508
2,HMSDMIGQNIRRLRTEKQMTQKALADKLFVTAQAVSRWENGEVEPSLSTVTEIARIFNVSADEILGI,-0.0125
3,HMSDPDPAEQALLRQFMTRYAAYRRRGQHPAGAFRTASLEVFGQEPSGDLRDVIVDLESGLV,-0.137
4,HMSDPELNDNEKKIYDIIFNKKSMDLTELKNLSELSNKQWDKGIKSLSKQDFVKVIKTEEALIVELV,-0.302
5,HMSDPSAQADALFNEGKTAEAFNVLLRLIEDSPEDQREDYRVRLLDLFRIAGNTPEVKAARRRLSALLM,-0.252
6,HMSDRFVRIVMNDGTVKLGQMISEDADFIRLKTNNLGELNIPKYLVLDMMDLTRSEYVRLSISNAG,0.169
7,HMSDSAFAEMRRELEALRNSNAEYERALSNFFPEAEDKALAAEAFYQNREYDELVAEREEANVIDGLKR,-0.094
8,HMSDSISLTLNGDLRRFRAHATIADLVRDIGLDPVKVAVERNLEIVSRSTLEDVVLADGDRLEIVHFV,-1.33
9,HMSDSLVLTGVAYVDGKPVVTLFDKVKKESLVVTDQPNLKGWTLVEATQSSDIKRATAKVNIGGEPVSIRY,0.117
10,HMSDTFENILQRLIKATGRKNASEMANALGLSPQSVYSAKTKGKIPPAWIFAAAERFNASADWIYFGY,-1.01
11,HMSDTSAIEKIIDEVLSDESSQKAINDIKNGNEKVYGFLVGQVMKKSQGKANPGLVQKMLREKIAK,0.212
12,HMSDYKSALQEAVQTNKQSIEYVLIKESGPAHNKTFTFEVRIDNISYGVGTAKSKKEAEQIAAKDALDKLV,-0.0635
13,HMSDYVLLYSGLNTSDTTFLAYSFQEKGIRYKMPNPDEIEVRVQDVDQARRIAAGAQLGGQVS,-0.424
14,HMSEEGTIPDVSGQDEASAQKALENAGFTNIKSEAVYSEEEQGTVIDTNPTAGTKVSKDTEITMQVSKGSE,-0.34
15,HMSEEKLVFSIPDDIETMRIDKAIALETHLSRAQIAELFKENKILLNSKNSKRSEKVKPGDKISLEFIPKI,-0.00517
16,HMSEEVKSQPISILDLSTRASNGLKNEGIETIGELVKYSEDELLGLDKFGQNSLKEIKKKLEEIGLTLKEH,-0.0419
17,HMSEFLTIVRAVYSGLSRRKVAAMHKVSRNTVSLYLRQARDQGWLTLEDLEKLDDLTVSQGVS,-2
18,HMSEFVIPLAKYNKALYTQVSLGMRFRMLFETEDSGVRRYMGTITGIGDLDPIRWKNSHWRNLQV,0.111
19,HMSEHLTLVVSDEDAGHRVDQFLVSRLAHMTRSQIQKLIKDGQVTIDTKLVRASTTVHTDNIVTIEFPPAV,-0.505
20,HMSEKLTLEAANEAAGMRIDKWLAMQLPELSRSRIEALISGGGVVVNGKNPSKSLKLKGGEQIELEIPE,0.0725
21,HMSELLIVGSEQDNTRLDRFLADQYEEYTRSFLQKLIDQGNVSINGISVKKSGIKLKENDEIAVTLPEPQ,0.389
22,HMSELPLTQKVAIVMVALGEEASGEVMKHLSDYEIEEITQAIAGLKNISVELMDQILEEYEQHLIAG,-0.459
23,HMSELTKEIGKRIHDFRKSRGLNQEELARLIYKSKATLSKYEKGEIAIDLDTLKQLALALHVRMEQLLPPT,-0.0472

row,Sequence,soluble fraction (log2)
1,HMSENDTILAKFVSVMGNKNLELVIFPDIAYLKGQVSNPEDKTKAETVAQSLLGGKPLVSLIEFE,0.218
2,HMSENIQLQKEQLYQLIAQLPEQRQKIFRLHKIDNYSYQEISDFTGLSRKTIANHIYLAHQFILKKVKK,-3.25
3,HMSENKIMEIVQDLAREKSVILISHRLANVTAADKILYMEQGKIAESGTHEQLMAQNKAYAALFNKQQEL,-0.11
4,HMSENLESEFFGIVVITQTLLQKELRDKPMTVELIRKTVEDVMSKHYSDSSVDKAKVEEELIRRFSTW,-0.164
5,HMSENMSQDLAQWYRLQQALHPNLDAPELWATDLTSQQRTVRDQLIQQWAQEKRDSLWSEISGD,0.0433
6,HMSEPFDMAVPLTSGGRRLDQVLAELLPQHSRNRLQGWIRDGLLTLDGVTVTEPKRKLAGGEQLALLLP,-0.13
7,HMSEPTLESLRAEGAHHYDPARFHYLEVLARRMPGQHAAVQQVLASRLREAVAAYAGRRSLI,-0.126
8,HMSEQSEALRTGLDQLPINQRTALTLFHLHELNQSEVAKIMNISVGAVESLLFRGRQKMKQLLTSD,-0.725
9,HMSERIITFGEATREAMLEEMRADERVFVYGEDIAKQGGIFGQFAGMKDEFPERVLDTPISETALVGAG,0.0621
10,HMSERVVVPDLTGKDLVAAQSELREISLAGREEGPGDKVRRQFPVAGVKVPKDTVVILYTED,0.125
11,HMSESAGKALDILFYLARVEDEVSLARLSKETGMNKATALRYLAVLESWGVVEKRPSGWSLGLSLFELGSK,-2.13
12,HMSESGTFRAEAADAGRRLDVALAERLRLSRAAAQRLIAAGLVLVEGSPARKRQILHAGETVAWRAAPP,-0.127
13,HMSESLLTAAGFKTIAATTPEQKRHLEWLHPDQVTAVQLTGQHYYVYPDVAKSQLFVGTPKEYQAYLALRT,-0.414
14,HMSESLRDLVLSLIPEDGSTIGNRALITRLREDLPDLTDEDYHEVRDQLIAEGVLAKGRGQGGSVARANG,0.205
15,HMSETIVFGQQKAINTLSSEAGLSSAELNNYLKKRYQRPLFQLTVSEGADLIQGFQDGTLTKASITQYVSQ,-0.0548
16,HMSETQDQTTIEIEDMITVGTLAERLSIPVSTLIGELMKNGVMATVNEKIDFDTAQIIVGELKLPIELSKK,0.201
17,HMSEYEYALHEFGITKKQSQRIFDRLSIADLEERINAIQTTLKQRSDIDNPAAYAWTVLNAE,-0.207
18,HMSEYLDIHMAMEKLNRKEQLFVHLRFYEGLTQSEIAQRLFTSQVQISRLEKSVLEKMRQILSK,-1.34
19,HMSEYTRGELVSSLEAGEVAAVSIRPNRETPTGEAQIVLSDGQHRVLYVTDVREIEELVSSYGLNPQVEK,0.233
20,HMSFDNIKVGYISETAGYVKGISLADANEYAKLNPDTEFIFIDGDEKVRFLTINEVNGLTPKNLLRSDP,-0.23
21,HMSFGFFELKSSDTDKLFAYLNNNEHFGNIKEENGLVTAFLTSELDAQTLNKLLFDNGIIASHLVKRK,-0.51
22,HMSFMPDPSIHDAITYTVRSGDYLGKISTTFGVKVSDLQKWNSIKSNIIYPGQKLTVWVSSNKRESLQ,-1.31
23,HMSFPLKRGSKGNRVTQLQNALVKKFGASILPKYGVDGMFGKEVEAALVRAKLPTSINESTYNSFV,0.12

row,Sequence,soluble fraction (log2)
1,HMSFVAYEEEKAIGMVRLIGDGGMSFYIKDFAVLPGHQGKGVGQMLLMELQQYLLEHKPADWAVSLE,-0.329
2,HMSGAKLLAPVTGTLLRYTVAEGTKVSEGQTVIMLESMKMELEINAHKAGVIHFTAAAGAQVAEGDSLAEI,-0.52
3,HMSGDKKLQMNLILEFAQQNESFRTKDIEELLQIRSSRARKLISDLVTEGRLEALGENRNRRYQLI,-0.985
4,HMSGDYRALYSSLPPERASSVVDALNVAGIPYRIQDSTGAIMVPAEQIYDARIRLAGQGLGK,0.227
5,HMSGEPKNERQIEVPDVTKKSIREANNILTSEGLRLRIEGTGLAVSQKPAAGTMVEPDTIITVTFQAP,0.35
6,HMSGHEVMVQRITAIIAELYQYGFVSRKKMMDEFNISERTLYRDLNRLGDRIVPDGDGIYRLAPAYA,-1.55
7,HMSGHIPGIKIKGVIFFDKGSSSNHIIATTENNSNLKLRVGETVQGAVLKSIHPNHVIFFHHNQLIEVGIG,-2.21
8,HMSGKGEFDQLLRSGEYVQAFQRANANGNVTLRRQQLLNLARHQAASGVGSGAIESLSTIQRI,0.0926
9,HMSGKMTVPNVVGKTETEAKSALSAKGFTNVRTETVDSTEAAGTVVKQSLDADSVQDPKTEIVLSVSNG,0.608
10,HMSGKWKIRILWYIAEYEVQRFGELRRRLGDITQSTLTEQLRELEQDGFVSRYVYQEVPSKVEYSLTE,0.143
11,HMSGKWSILILHALEQGPKRFNVLHRELSGITQATLTKQLRQLEEDGIILRKAYPQIPPKVEYQLTEIG,-1.74
12,HMSGNPLDTYYSKWSAEIKKGSPNAVISKEGDKYYVSIPGENRMAIIYENPHLIRMVNATRNIHVE,-0.168
13,HMSGPSDRDLFDEALALLSGSGREPDYHEARIRLGTLVEQFPESKWAEGAKALLSMLDRVSALQV,0.246
14,HMSGPVITEERNIANALISGLANMKETPTREQVERKAQQIAELFGYTGDLRNIITEAMISVDT,0.059
15,HMSGRPPTYTAEERSAVIAAALSRPADLGLPFASWTLDRLVAYLGEKGIGMKRSRMSEVLLAEGLKW,-1.25
16,HMSGSGYAYVDKYGYSHVVKDYDTAKNYASDGNVYNYSGSHKGGYAYDADNYRVPLDLPGSKPYG,-0.0115
17,HMSGSIIQQAENLERQFGDTREAILGTLSDPKMSEEILETLMERYNKQHGTNWDKNTWAEEWAKANK,0.23
18,HMSGSILVQVSATDLNIRKGPGTNYGTTGKYTGKGTFTIVETRSGQGSNAGWGKLKSGAGWISLDYAKR,-1.38
19,HMSGTESMIEGRGEARTAIDGEGKVFFQGEYWTAQSDQFIPQGAKVRIKKVEGLNLIVEEIK,0.0805
20,HMSGTYIVTVQANTLDIYKSMTSNDTIGKANKGDVFQILEDMGGGYAKVSYNDVEGYISIKDGDTSIDEM,-0.23
21,HMSGVIVPDIYNKTLAEAVASLEGEGFSTEKKEGYSDTVPKGNVMSQKPEAGTSAERGSTVTITISQGPQ,-0.0107
22,HMSGWIATGTATSTGNDVRVRSTPDATVNNNILLTLNKGNRFEIDGQTQNGFYHIKVNDTIGWISGLYVKE,-0.499
